# The supplement of paper PMC10567573
# ± gives the standard deviation.
# Assay: protein stability index of a GFP-peptide fusion (GPS, HEK-293T) (PSI 1-6); higher = more stable
# Conditions: c terminus: a fixed tail appended
# 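Also: 24-mer peptide tiles fused after GFP, lentivirally expressed, FACS-sorted into six equal bins by GFP/DsRed ratio, decoded by Illumina sequencing, PSI is the read-weighted mean bin number.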
Sequence,protein stability index (treatment: DMSO),"protein stability index (treatment: MLN4924 1 uM, 8 h)"
LLLNNANPNLSNRRGSTPLHMAVE [RIPK4],2.41 ± 0.25,2.73 ± 0.43
LLVSLVTTVVVFVASMVLGECRQM [CLCN6],3.02 ± 0.73,3 ± 0.94
LMELCRLYHRADVEKVLRRWVDEE [EDARADD],2.5 ± 0.58,2.4 ± 0.33
LNEEINIASSDSEVEIVGVQEHAR [C18orf25],5.27 ± 0.1,5.33 ± 0.18
LPGRGRVLSSWSRAFVSIQEEMAE [RHOBTB2],3.08 ± 0.54,3.25 ± 0.27
LPHLQDSFVDKLLDLMPRLMTSKP [INTS4],2.16 ± 0.2,2.15 ± 0.24
LPPDMTVVPGDHLLEPEVADGGGA [KCNA3],5.35 ± 0.39,5.42 ± 0.096
LPPSPRFLVMKGQEGAASKVLGRL [SLC2A12],3.34 ± 0.28,3.48 ± 0.83
LPTLVPWYFWGETFQNSVFVATFL [SCD],3.15 ± 0.076,3.09 ± 0.35
LPYQHFSAHFTSGPLVPRLAGMAN [TBX5],2.7 ± 0.27,2.56 ± 0.11
LQGLSLIVTWFMLLYAQGLLAIQF [SLC19A2],3.16 ± 0.26,3.16 ± 0.26
LQHAVELKPLCGCHSFAAAADGPT [SMAD6],3.16 ± 0.21,3.17 ± 0.28
LQLGAAKKPPVTFAEKGELRKSIF [TRIM29],3.14 ± 0.16,3.25 ± 0.21
LQQERQRLGQRQPPPSEPTQGPEI [DNAJC4],5.52 ± 0.16,5.16 ± 0.081
LQQQNEDLKARIDQNTVVTRQLSE [MTUS2],5.1 ± 0.26,5.21 ± 0.083
LQRLKEQQFVIAGVLVEDSNNHHL [ZBED1],2.83 ± 0.085,3.02 ± 0.27
LQRVLEHRRRNQLIKKKKEELEAK [FAM107A],3.49 ± 0.29,3.81 ± 0.5
LRDKTVMIIVAISPKYKQDVEGAE [TRAF3IP2],2.4 ± 0.047,2.97 ± 0.69
LREIAFTRQLHEKTSQLSYYYMGF [ATE1],2.31 ± 0.35,2.34 ± 0.24
LREINFKIVEFNPMVLKGKIRPDS [GLT8D2],2.39 ± 0.34,2.41 ± 0.41
LREMCALSFQEELLYWGIAEDHLD [KCNG1],2.27 ± 0.27,2.26 ± 0.22
LRHLELLDEFARENIDSLYNVNLS [SCNN1D],2.66 ± 0.092,2.94 ± 0.34

Sequence,protein stability index (treatment: DMSO),"protein stability index (treatment: MLN4924 1 uM, 8 h)"
LRRELELLGRERDRVQVERDGLAE [PRPH],4.6 ± 0.49,4.8 ± 0.36
LRSQLQTLKQQHQQAVEQIAKAEE [CCDC89],4.66 ± 0.15,4.76 ± 0.11
LRTLFTDLFEKKGYTFDYAYDWVG [CSNK1G1],2.2 ± 0.21,2.12 ± 0.39
LRVSPAEQPRLEFLMRKCGWFVRE [FBXO33],1.97 ± 0.12,2.08 ± 0.38
LSDDYEQVRSAAVQLIWVVSQLYP [INTS4],2.08 ± 0.43,2.13 ± 0.45
LSEEEKEELKAELVQLEDEITTLR [TPD52L1],5.03 ± 0.17,5.2 ± 0.19
LSEGCRAELAETIVYARVLALHPE [CCDC3],2.92 ± 1.4,1.83 ± 0.38
LSLLVMVISPVIQLQPTFTPMRVA [NSDHL],3.08 ± 0.32,3.23 ± 0.087
LSPALDLQAESPPVDPDSQADTVH [DNAAF3],5.48 ± 0.41,5.46 ± 0.21
LSRKVAELVHFLLLKYRAREPVTK [MAGEA3],2.97 ± 0.42,2.44 ± 0.43
LSVTISFRIYKSVIQAVQKSEEGH [RTN3],3.26 ± 0.61,3 ± 0.42
LTEASAHSHPPEIKDQGGAGEGLV [MAP2],5.57 ± 0.15,5.56 ± 0.2
LTKFLEEHPGGEEVLREQAGGDAT [CYB5A],5.44 ± 0.24,5.44 ± 0.26
LTLKVLRSSSCGDTELLGQATLPV [C2CD2L],2.16 ± 0.73,2.33 ± 0.34
LVDMDMADYSAALDPAYTTLEFEN [HNF4A],4.24 ± 0.19,4.35 ± 0.054
LVITDFFGHLINGAIAVFVYASDK [PTGFR],3.39 ± 0.23,3.56 ± 0.49
LVNDDDEEADDTRYTQGTGGDEVD [ZC3H15],5.43 ± 0.31,5.67 ± 0.23
LVPFVGKVHIGYLPNKQVLGLSKL [GCH1],2.78 ± 0.19,2.06 ± 0.37
LVVIQQPSLDSRQRLDYEREIQPT [SPRY1],2.96 ± 0.2,3.1 ± 0.11
LVYDVEVKSHLLDYVMTTLLFSDK [TRIP13],2.9 ± 0.45,2.92 ± 0.47
LWILHLLLECYIQYHHSKIRNRGY [TMEM192],2.61 ± 0.51,2.49 ± 0.32
LYAVGGQDGVSCLNIVERYDPKEN [KLHL20],3.89 ± 0.31,3.96 ± 0.27
